{
  "source": "paper PMC9367475",
  "key": {"[1]": {"biological_target": "human DC-SIGN expressed on HEK 293T cells (DC-HEK) (human) (UniProt Q9NNX6)"}, "[2]": {"biological_target": "DC-SIGN on THP-1 cells induced with PMA and IL-4 (DC-THP-1) (human (endogenous in THP-1)) (UniProt Q9NNX6)"}},
  "data": [
    {"substance": "recombinant SARS-CoV-2 spike protein (from UniProt P0DTC2 14-1273) (natural protein)", "values": [
      {"measurement": "IFN-α mRNA (RT-qPCR, 6 h) in DC-HEK cells challenged with Spike protein pre-incubated with rfhSP-D 20 µg/ml, against Spike protein without rfhSP-D", "setting": "[1]", "value": -2.1},
      {"measurement": "NF-κB mRNA (RT-qPCR, 6 h) in DC-HEK cells challenged with Spike protein pre-incubated with rfhSP-D 20 µg/ml, against Spike protein without rfhSP-D", "setting": "[1]", "value": -1.2},
      {"measurement": "RANTES mRNA (RT-qPCR, 6 h) in DC-HEK cells challenged with Spike protein pre-incubated with rfhSP-D 20 µg/ml, against Spike protein without rfhSP-D", "setting": "[1]", "value": -1.3},
      {"measurement": "TNF-α mRNA (RT-qPCR, 6 h) in DC-HEK cells challenged with Spike protein pre-incubated with rfhSP-D 20 µg/ml, against Spike protein without rfhSP-D", "setting": "[1]", "value": -3.3},
      {"measurement": "IL-1β mRNA (RT-qPCR, 6 h and 12 h: ~ -2.5 to ~ -4 log10) in DC-THP-1 cells challenged with Spike protein pre-incubated with rfhSP-D 20 µg/ml, against Spike protein without rfhSP-D", "setting": "[2]", "value": -4},
      {"measurement": "IL-6 mRNA (RT-qPCR, 12 h) in DC-THP-1 cells challenged with Spike protein pre-incubated with rfhSP-D 20 µg/ml, against Spike protein without rfhSP-D", "setting": "[2]", "value": -5},
      {"measurement": "IL-8 mRNA (RT-qPCR, 6 h and 12 h: ~ -2.3 to ~ -4.8 log10) in DC-THP-1 cells challenged with Spike protein pre-incubated with rfhSP-D 20 µg/ml, against Spike protein without rfhSP-D", "setting": "[2]", "value": -4.8},
      {"measurement": "MHC class II mRNA (RT-qPCR, 6 h and 12 h: - 2 to - 2.7 log10) in DC-THP-1 cells challenged with Spike protein pre-incubated with rfhSP-D 20 µg/ml, against Spike protein without rfhSP-D", "setting": "[2]", "value": -2.7},
      {"measurement": "NF-κB mRNA (RT-qPCR, 6 h and 12 h: ~ -1 to ~ -4 log10) in DC-THP-1 cells challenged with Spike protein pre-incubated with rfhSP-D 20 µg/ml, against Spike protein without rfhSP-D", "setting": "[2]", "value": -4},
      {"measurement": "TNF-α mRNA (RT-qPCR, 6 h and 12 h: ~ -3.1 to ~ -6.8 log10) in DC-THP-1 cells challenged with Spike protein pre-incubated with rfhSP-D 20 µg/ml, against Spike protein without rfhSP-D", "setting": "[2]", "value": -6.8}
    ]}
  ]
}
